In experiment [1] the target is T1, 新冠病毒SARS-CoV-2变异毒株Delta(B.1.617.2)S1抗原 (SARS-CoV-2, UniProt P0DTC2 16-685).
T1 construct: domain: S1; also called Delta S1
The experiment in a line: SPR (Biacore T200), S1 antigen coupled to CM5 chip, antibody as analyte. On the technique in general: In SPR one partner is held on a chip, and binding of the other changes the refractive index at the surface.

Experiment [2] concerns the target T2, 新冠病毒SARS-CoV-2变异毒株Omicron(B.1.1.529)S1抗原 (SARS-CoV-2, UniProt P0DTC2 16-685).
T2 construct: domain: S1; also called Omicron S1; Omicron(B.1.1.529)的S1蛋白
Described as above.

Drawing on patent publication CN114573691A (EIGHT HOSPITALS IN AFFILIATED CITY OF GUANGZHOU MEDICAL; …, dated 2022), this text covers Kd for two molecules.

B1: 中和抗体YB13-208 (antibody, V domains shown)
V domain 1: QITLKESGPTLVKPTQTLTLTCTFSGLSLSTSGVSVGWIRQPPGKAPEWLALIYWDDDKRYSPSLTSRLSITKDTSKNQVVLTMTNMDPVDTATYYCAHPRYYGDSSGYYWIWGQGTMVTVSS
V domain 2: SYELTQPPSVSVSPGQTARITCSGDALPKQYAYWYQQKPGQAPVVVMYKTSERPSGIPERFSGSSSGTTVTLTISGVQAEDEADYYCQSADSSGFYVFGTGTQVTVL
In general, Kd refers to the constant that tells how readily two partners part at equilibrium. Read a high Kd as weaker binding. Turning to B1, the dissociation constant (Kd) in experiment [1] was found to be 0.639 nM; in experiment [2], 3.11 nM.

B2: 中和抗体YB9-258 (antibody, V domains shown)
VH: EVQLVESGGGLIQPGGSLRLSCAASGLTVSSNYMHWVRQAPGKGLEWVSVLYAGGSAFYADSVKGRFTISRNNSKNTLYLQMNSLRAEDTAIYYCARGLGDYLDSWGQGTLVTVSS
VL: DIQMTQSPSSVSASVGDRVTITCRASQGIGSWLAWYQQKPGKAPQLLIYAASTLQSGVPPRFSGSGSGTDFTLTITSLQPEDFASYYCQQANSVLALTFGGGTKVEIK
In the case of B2, the Kd stood at 0.833 nM in experiment [1] and 0.00417 nM in experiment [2].
